Assay results: publication PMC11303327, “MnoSR removal in Mycobacterium smegmatis triggers broad transcriptional response to 1,3-propanediol and glucose as sole carbon sources”

T1: MnoR (Mycobacterium smegmatis, UniProt A0R5L8 1-216)
T1 sequence: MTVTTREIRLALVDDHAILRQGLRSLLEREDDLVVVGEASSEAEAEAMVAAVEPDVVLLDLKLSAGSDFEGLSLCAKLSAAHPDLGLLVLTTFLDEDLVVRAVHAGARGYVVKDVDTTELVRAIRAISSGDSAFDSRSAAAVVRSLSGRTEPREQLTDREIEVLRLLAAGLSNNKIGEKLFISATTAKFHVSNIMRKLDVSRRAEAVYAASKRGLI


Legend:
MnoR [1] = molecular target: T1, MnoR; assay: MST; PBS-T; EMSA: 50 mM Tris-HCl (pH not stated), 100 mM NaCl, 10 mM MgCl2, 100 ug/ml BSA, 5% glycerol, 5 nM DNA, 30 min 25 °C, 5% native gel at 4 °C; MST: PBS-T, room temperature, DNA 60 nM (perfect), 15 nM (2MM), 120 nM (4MM); conditions: protein: recombinant; tags: N-terminal 6xHis; chain copies: 2; label: 5'-Cy5 on strand 1; blunt
MnoR [2] = molecular target: T1, MnoR; assay: EMSA; 100x polyA instead of salmon sperm DNA; EMSA: 50 mM Tris-HCl (pH not stated), 100 mM NaCl, 10 mM MgCl2, 100 ug/ml BSA, 5% glycerol, 5 nM DNA, 30 min 25 °C, 5% native gel at 4 °C; MST: PBS-T, room temperature, DNA 60 nM (perfect), 15 nM (2MM), 120 nM (4MM); conditions: protein: recombinant, tags: N-terminal 6xHis, chain copies: 2, label: 5'-Cy5 on strand 1

| Binder | binding result (MnoR [2]; blunt) | also measured |
| --- | --- | --- |
| mno perfect motif (dsDNA) DNA 1: GCCTGAGCGATCTGGGGCTCTGAGCACCCTCGCCCACCGGTGAGCCGCCGGTGGGCGGCCACCCTGCCCGACCGGACAGTTCTGCCG DNA 2: CGGCAGAACTGTCCGGTCGGGCAGGGTGGCCGCCCACCGGCGGCTCACCGGTGGGCGAGGGTGCTCAGAGCCCCAGATCGCTCAGGC | – | Kd (MnoR [1]): 2370 nM |
| mno 2MM (dsDNA) DNA 1: ACCTGGCGGATCTGAGCCCGGCAGGCGATCCGCACACCGGTACCGTGCTGGTGGGCGCGAGCCCCGAGTTGCTGGTCGCCCGCGACG DNA 2: CGTCGCGGGCGACCAGCAACTCGGGGCTCGCGCCCACCAAGCACGGTACCGGTGTGCGGATCGCCTGCCGGGCTCAGATCCGCCAGGT | – | binding result (MnoR [2]): binds |
| mno 3MM (dsDNA) DNA 1: GCTGGAGGAGGCGTTCACCGCTGACTGGCTCGCCCAGCACTCCTAAGCCGGTGGGCGCCGTCACCCGCGGCACCACCGGTTACAACC DNA 2: GGTTGTAACCGGTGGTGCCGCGGGTGACGGCGCCCACCGGCTTAGGAGTGCTGGGCGAGCCAGTCAGCGGTGAACGCCTCCTCCAGC | binds | – |
| mno 4MM (dsDNA) DNA 1: CACGCTGATCACGTCCGACGTCGACGAGCGCGACCAGCCGTTCATCACCGGTGAGCGCACCAAGGAAGGCTTCTTCCGCGTGAAGAA DNA 2: TTCTTCACGCGGAAGAAGCCTTCCTTGGTGCGCTCACCGGTGATGAACGGCTGGTCGCGCTCGTCGACGTCGGACGTGATCAGCGTG | binds | – |
